± gives the standard deviation.
Test: protein stability index of a GFP-peptide fusion (GPS, HEK-293T) (PSI 1-6); higher = more stable
Details: c terminus: a fixed tail appended
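Further: 24-mer peptide tiles fused after GFP, lentivirally expressed, FACS-sorted into six equal bins by GFP/DsRed ratio, decoded by Illumina sequencing, PSI is the read-weighted mean bin number.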

Row | Sequence | protein stability index (treatment: DMSO) | protein stability index (treatment: MLN4924 1 uM, 8 h)
1 | CRETGSFLDLFRYRVLLGHTLILM [SLC22A15] | 2.97 ± 0.59 | 2.45 ± 0.38
2 | CRLKRCVDIGMMKEFILTDEEVQR [VDR] | 2.49 ± 0.28 | 2.53 ± 0.13
3 | CRRSVRLALGRERLGEIHTLPLPA [SPSB1] | 3 ± 0.17 | 2.98 ± 0.11
4 | CTAGNFMECQPESSISHRFHKDCA [EHMT1] | 2.96 ± 0.25 | 3.03 ± 0.27
5 | DAHLVLDGEEIPVQKNILAAASPY [GAN] | 4.18 ± 0.12 | 4.16 ± 0.3
6 | DALISVSYTIITPLFNPMIYSLRN [OR10K2] | 4.18 ± 0.26 | 3.35 ± 0.75
7 | DAPPVELQLLHECSPSQMDLLCAQ [FANCE] | 4.31 ± 0.054 | 4.63 ± 0.25
8 | DARDEELEKDTMDNWDEKKLEEVV [ZC3H15] | 5.45 ± 0.4 | 5.21 ± 0.25
9 | DARDGQSRTVRQFQFTDWPEQGVP [PTPRD] | 4.08 ± 0.61 | 4.32 ± 0.41
10 | DAWKRPDALPGQSKRLAVPCKLEK [TLE6] | 4.2 ± 0.17 | 4.28 ± 0.2
11 | DDKHYGGFTNKQLQSGQEYVFFVL [PTPRD] | 2.64 ± 0.53 | 2.55 ± 0.43
12 | DEEVVATAGDRLTEFRKGAQSLPG [IRX6] | 5.12 ± 0.2 | 5.19 ± 0.22
13 | DERRDAEERASLAGNRNSMVIHIP [KCNK9] | 4.24 ± 0.08 | 4.51 ± 0.086
14 | DFKNPIIEKYLRRQLTKPRPVILD [OAS1] | 2.46 ± 0.11 | 2.36 ± 0.2
15 | DFSMAEALNQEFLATRSNEKQELQ [PRPH] | 5.05 ± 0.19 | 4.95 ± 0.27
16 | DIDGDVLVFLELAQFHCAYQLADW [RHOBTB2] | 2.76 ± 0.47 | 3.23 ± 0.62
17 | DIDQMFSTLLGEMDLLTQSLGVDT [APBB1IP] | 3.16 ± 0.5 | 2.76 ± 0.41
18 | DIGKGAFSVVRRCVKLCTGHEYAA [CAMK2B] | 1.93 ± 0.2 | 2.06 ± 0.37
19 | DISMEIDSPENMMRHIRFLKNEVE [CCDC6] | 4.09 ± 0.39 | 3.86 ± 0.33
20 | DKLLKHMIIEHKIVIADVKLVADF [ZNF277] | 3.07 ± 0.33 | 2.82 ± 0.72
21 | DKRNYPSLELDKMAHGYGEESEEE [CHGB] | 5.63 ± 0.37 | 5.66 ± 0.19
22 | DPDEVARRWGKRKNKPKMNYEKLS [ETS1] | 4.51 ± 0.24 | 4.22 ± 0.35
23 | DPFVCRLRHLSPTPSEEHMKNKNN [OR4A15] | 4.73 ± 0.11 | 4.66 ± 0.1

Row | Sequence | protein stability index (treatment: DMSO) | protein stability index (treatment: MLN4924 1 uM, 8 h)
24 | DPGLWSRLCRLAGASSPAAYDEAL [ZSWIM9] | 2.82 ± 0.15 | 2.78 ± 0.24
25 | DPVELRRLNFQTPGMASHPPIPIL [PTPRD] | 2.91 ± 0.19 | 3.04 ± 0.33
26 | DSDIPEIPPSSDRTPEILKKALSG [CDS1] | 5.2 ± 0.21 | 5.39 ± 0.19
27 | DSEFSMQEPMVPAKLGTQAEKDRR [PPFIA4] | 4.9 ± 0.77 | 5.646 ± 0.045
28 | DSGDSKDIRLTLMEEVLLLGLKDK [GOLPH3L] | 3.24 ± 0.19 | 3.25 ± 0.34
29 | DSGTCPEVDEEGFTVRPDVTQNST [FCHO1] | 5.43 ± 0.28 | 5.4 ± 0.15
30 | DSSEEESHRVVLRPRGKERHKSGV [LYSMD4] | 5.21 ± 0.28 | 5.14 ± 0.11
31 | DTRRLITKPQNLNDAYGPPSNFLE [SNX3] | 3.69 ± 0.17 | 3.88 ± 0.17
32 | DTTELSSAERYNPRTNQWSPVVAM [KLHL20] | 3.5 ± 0.17 | 3.7 ± 0.19
33 | DVQSMPKTGILILILSIIFIEGYC [MAGEA10] | 2.86 ± 0.97 | 2.88 ± 1.2
34 | DVVEDYKKRYEEEINKRTAAENEF [KRT71] | 5.13 ± 0.093 | 5.37 ± 0.3
35 | DWLRRPLGEDNQPETQLFWDKEPW [TLE6] | 3.35 ± 0.34 | 3.22 ± 0.43
36 | DYVHISSKPCDLHCTTVDGQRQLM [ADAMTSL2] | 3.45 ± 0.29 | 3.44 ± 0.23
37 | EAEADEEADPPASDLPTPQAIEPQ [SNX8] | 5.62 ± 0.17 | 5.63 ± 0.26
38 | EALITDPDEMRMQALLIRERILGP [FEM1A] | 3.56 ± 0.26 | 3.45 ± 0.26
39 | EASQLRRLNIKKDDEFFHFVLLCF [TMEM40] | 2.15 ± 0.25 | 2.22 ± 0.26
40 | EAVPEGPDGGGPWLEDEPGRGAQG [ZSWIM9] | 5.45 ± 0.52 | 5.56 ± 0.35
41 | EDLAQKLNLEEDRIQIWFQNRRAK [HESX1] | 4.12 ± 0.55 | 4.11 ± 0.47
42 | EDMLWDDLLHGPECRSSVTSDSEG [PHTF1] | 5.07 ± 0.3 | 5.16 ± 0.16
43 | EDPDYYGQEIWSREPYYARPEPEL [CPXM2] | 4.38 ± 0.11 | –
44 | EEAEELAKEMSVPFYTSRIDEVLL [GFOD1] | 3.83 ± 0.24 | 4.11 ± 0.33
45 | EEANADLEVKIHDWYQKQTPTSPE [KRT15] | 5.33 ± 0.23 | 5.29 ± 0.16
46 | EEDNDDAKILPSPVQGSSEDNLSL [DRICH1] | 5.57 ± 0.25 | 5.55 ± 0.17

Row | Sequence | protein stability index (treatment: DMSO) | protein stability index (treatment: MLN4924 1 uM, 8 h)
47 | EELEEALEVERQENEQRRLFIQKE [MNAT1] | 5.05 ± 0.24 | 5 ± 0.16
48 | EEPTERGNLEVGEPQSEPVRVLDM [FBXO34] | 5.34 ± 0.17 | 5.5 ± 0.16
49 | EEQRVEQQTKLEAEKLKVQALKDR [LSM1] | 5.55 ± 0.28 | 5.36 ± 0.12
50 | EESYYCRCHRGYTLDPNGKTCSRV [MATN2] | 2.82 ± 0.53 | 3.09 ± 0.55
51 | EEVAKAVLEQEETAAASRERQEEQ [EPB41L3] | 5.71 ± 0.078 | 5.63 ± 0.19
52 | EFMKDRLYFATLRNRPKSTVNTHY [CDC14A] | 2.11 ± 0.23 | 2.17 ± 0.59
53 | EFSTSLFSGSLEPVACGSVLSEGS [SRPK2] | 3.98 ± 0.19 | 4.04 ± 0.26
54 | EGAQLKKVEQNSRPVSCSGRDALL [WASL] | 4.53 ± 0.39 | 4.72 ± 0.48
55 | EGDATRDPGPEPEEEPGVRNGMAS [PSD2] | 5.7 ± 0.16 | 5.38 ± 0.34
56 | EGGIFTSPNYPSKYPPDRECIYII [NETO1] | 2.76 ± 0.94 | 2.95 ± 0.7
57 | EGSDYINASFIDGYRQQKAYIATQ [PTPRD] | 3.18 ± 0.25 | 3.34 ± 0.23
58 | EGSPRNLGTPTSSTPRPSITPTKK [C2CD2L] | 5.35 ± 0.19 | 5.34 ± 0.17
59 | EHPGGEEVLREQAGGDATENFEDV [CYB5A] | 5.47 ± 0.2 | 5.54 ± 0.24
60 | EIDTQGRHLAHSMLQRAIAYQHSG [C10orf62] | 2.91 ± 0.24 | 3.15 ± 0.28
61 | EILNFNQYYEACRKAAKSLIKLGL [ACSBG2] | 1.91 ± 0.39 | 2.92 ± 1.3
62 | EKASWLGEQPQFWSKTQVLDWISY [ELF3] | 2.33 ± 0.3 | 2.16 ± 0.096
63 | EKDLVGLAQIAEVLEMFDLRMMVE [RHOBTB1] | 2.46 ± 0.21 | 2.22 ± 0.38
64 | EKEELLQLSIERGKVLQNKQAEIC [CCDC89] | 4.44 ± 0.27 | 4.68 ± 0.17
65 | EKEIPVLNELPVPMVARYIRINPQ [CPXM2] | 3.16 ± 0.26 | 3.25 ± 0.18
66 | ELCVKLMFLHPVDYGRKAEELLWR [SMG5] | 2.41 ± 0.7 | 2.33 ± 0.89
67 | ELHRRLDEEQQVLLSRLEEEEQDI [TRIM39] | 5.426 ± 0.033 | 5.49 ± 0.17
68 | ELIKWRAAIVVNGHGMTPLKVAAE [FEM1B] | 2.64 ± 0.55 | 2.15 ± 0.33
69 | ELQEKQKNEKLISLQEQLQRFLKK [TAF7L] | 3.36 ± 0.33 | 3.39 ± 0.15

Row | Sequence | protein stability index (treatment: DMSO) | protein stability index (treatment: MLN4924 1 uM, 8 h)
70 | ELQIELLRETKRKYESVLQLGRAL [ARFIP2] | 2.54 ± 0.12 | 2.55 ± 0.23
71 | ELVVIIGWAKHIPGFSTLSLADQM [ESRRG] | 3.19 ± 0.31 | 2.67 ± 0.77
72 | EMKEFSSQLAGQVNVEMDAAPGVD [KRT15] | 5.29 ± 0.24 | 5.07 ± 0.11
73 | ENDPEWWKCKNARGQVGLVPKNYV [NCK2] | 3.52 ± 0.16 | 3.54 ± 0.12
74 | ENKENEAFEFKKPVRPVSRGCLHS [CDC25A] | 3.87 ± 0.7 | 3.73 ± 0.52
75 | ENPVGTFHCSMSPGNLEKNRYGDV [PTPN9] | 3.44 ± 0.35 | 3.4 ± 0.38
76 | EPLAEGAAAEFSSLLRRIKGKLFT [SLC35F2] | 2.55 ± 0.33 | 2.65 ± 0.096
77 | EQIKTRTEELIVQTKQVYDAVGML [NLN] | 3.68 ± 0.25 | 3.88 ± 0.41
78 | EQKNHTFPRLNRNKYMVTDGAAYI [PLD5] | 2.85 ± 0.078 | 3.19 ± 0.24
79 | ERDRDPCGGSGGGGGGGGGGGGCS [LURAP1L] | 5.37 ± 0.35 | 5.4 ± 0.24
80 | ERFSSAPCLLGSRVFSQGSHAWEV [TRIM35] | 2.51 ± 0.36 | 2.46 ± 0.2
81 | ESDSRKVAEETPDGAPALCPSPEA [PRKX] | 5.69 ± 0.17 | 5.58 ± 0.3
82 | ESGKEEGMKIDLIDGKGRGVIATK [KMT5A] | 5.12 ± 0.41 | 5.39 ± 0.39
83 | ESSNDFGPYEGGGPVAGLDDSGGP [ZBTB22] | 5.03 ± 0.42 | 5 ± 0.13
84 | ESSPSHDRSRTVSASSTGDLPKAK [SRPK2] | 5.16 ± 0.33 | 5.22 ± 0.16
85 | ETFSTLKNWVKELRQHGPPNIVVA [RAB22A] | 2.4 ± 0.69 | 2.36 ± 0.14
86 | ETNLLLAQKQRLERALDATEVPFS [TEKT4] | 4.1 ± 0.29 | 4.21 ± 0.25
87 | ETPMAPVPLGPLGETYCEEHGEKI [TRIM15] | 5.39 ± 0.2 | 5.38 ± 0.12
88 | ETYIHLLAMKIKVGSDDLERIEAR [PSD2] | 2.26 ± 0.13 | 2.5 ± 0.44
89 | EVKGTLEGDVCGVEPPGPGDTVVQ [PBXIP1] | 5.48 ± 0.23 | 5.37 ± 0.11
90 | EVKSSIAGSSTWERYFIPVSCFLT [SLC29A1] | 2.44 ± 0.37 | 2.34 ± 0.36
